Assays:
[1] = molecular target: murine BACE1 ECD (amino acids 1-457) (murine) (UniProt P56818); test: SPR (BIAcore-3000), second unlabelled row under Mouse, IgG captured by anti-human Fc antibody, pH 7.0
[2] = molecular target: murine BACE1 ECD (amino acids 1-457) (murine) (UniProt P56818); test: SPR (BIAcore-3000), IgG captured by anti-human Fc antibody, BACE1 ECD injected, 25 C, pH 7.0

Chain of murine BACE1 ECD (amino acids 1-457) (murine) (P56818 22-457 limits assumed, form in doubt): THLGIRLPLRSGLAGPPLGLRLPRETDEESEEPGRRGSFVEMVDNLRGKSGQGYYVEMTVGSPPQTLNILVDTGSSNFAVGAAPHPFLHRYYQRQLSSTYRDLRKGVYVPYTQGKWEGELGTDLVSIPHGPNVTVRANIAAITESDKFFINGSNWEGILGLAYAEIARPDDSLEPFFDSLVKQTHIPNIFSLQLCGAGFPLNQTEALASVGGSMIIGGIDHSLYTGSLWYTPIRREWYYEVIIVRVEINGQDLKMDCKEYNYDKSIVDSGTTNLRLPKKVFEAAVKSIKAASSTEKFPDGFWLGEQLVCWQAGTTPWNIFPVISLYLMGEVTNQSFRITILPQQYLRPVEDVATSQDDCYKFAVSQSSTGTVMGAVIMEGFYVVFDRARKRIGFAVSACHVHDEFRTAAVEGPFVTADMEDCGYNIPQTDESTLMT

B1: YW412.8.31 anti-BACE1 human IgG (antibody, V domains shown)
VH: EVQLVESGGGLVQPGGSLRLSCAASGFTFLGYGIHWVRQAPGKGLEWVGWISPAGGSTDYADSVKGRFTISADTSKNTAYLQMNSLRAEDTAVYYCARGPFSPWVMDYWGQGTLVTVSS
VL: DIQMTQSPSSLSASVGDRVTITCRASQDVSTAVAWYQQKPGKAPKLLIYSASFLYSGVPSRFSGSGSGTDFTLTISSLQPEDFATYYCQQFPTYLPTFGQGTKVEIK
[1]
  Kd: 1.4 nM
  koff: 0.000141 s⁻¹
  kon: 101000 M⁻¹ s⁻¹
[2]
  Kd: 2.1 nM
  koff: 0.00029 s⁻¹
  kon: 140000 M⁻¹ s⁻¹

— patent US20140286963A1
